# Experimental data: the supplement of paper PMC9112550, “Optimization of the antimicrobial peptide Bac7 by deep mutational scanning” (BMC Biology, 2022)
# System: Escherichia coli TOP10
# Assay: shrunken log2 fold change of peptide-encoding DNA abundance (4.5 h post-induction vs induction); higher = less antimicrobial activity (less host growth inhibition)
# Conditions: time post-induction: 4.5 h; library: site-saturation at positions 5, 18, 19, 20
# 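Also: peptides expressed intracellularly from a pBAD plasmid library in pooled LB shake-flask culture, induced with 0.3% L-arabinose, DNA abundance read by NGS, three biological replicates, DESeq2 with apeglm shrinkage.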
row,Sequence,shrunken log2 fold change
1,RRIRQRPPRLPRPRPRPVIHPRP,-0.455
2,RRIRQRPPRLPRPRPRPVIPPRP,-1.12
3,RRIRQRPPRLPRPRPRPVKRPRP,0.103
4,RRIRQRPPRLPRPRPRPVMSPRP,-0.215
5,RRIRQRPPRLPRPRPRPVPYPRP,-0.363
6,RRIRQRPPRLPRPRPRPVQIPRP,0.0268
7,RRIRQRPPRLPRPRPRPVQSPRP,0.0508
8,RRIRQRPPRLPRPRPRPVRDPRP,0.556
9,RRIRQRPPRLPRPRPRPVRHPRP,-0.0023
10,RRIRQRPPRLPRPRPRPVRMPRP,0.149
11,RRIRQRPPRLPRPRPRPVSDPRP,-0.0568
12,RRIRQRPPRLPRPRPRPVSLPRP,-0.131
13,RRIRQRPPRLPRPRPRPVSPPRP,-0.0264
14,RRIRQRPPRLPRPRPRPVSQPRP,0.00815
15,RRIRQRPPRLPRPRPRPVTLPRP,-0.153
16,RRIRQRPPRLPRPRPRPVWRPRP,0.205
17,RRIRQRPPRLPRPRPRPVWTPRP,0.0102
18,RRIRQRPPRLPRPRPRPVWVPRP,0.0799
19,RRIRQRPPRLPRPRPRPVYPPRP,-0.0407
20,RRIRQRPPRLPRPRPRPWAHPRP,-0.0595

row,Sequence,shrunken log2 fold change
1,RRIRQRPPRLPRPRPRPWALPRP,-0.0992
2,RRIRQRPPRLPRPRPRPWASPRP,-0.017
3,RRIRQRPPRLPRPRPRPWAVPRP,0.066
4,RRIRQRPPRLPRPRPRPWCIPRP,0.0342
5,RRIRQRPPRLPRPRPRPWCMPRP,-0.342
6,RRIRQRPPRLPRPRPRPWDKPRP,-0.153
7,RRIRQRPPRLPRPRPRPWDWPRP,0.0372
8,RRIRQRPPRLPRPRPRPWFDPRP,-0.253
9,RRIRQRPPRLPRPRPRPWFRPRP,-0.145
10,RRIRQRPPRLPRPRPRPWFTPRP,-0.356
11,RRIRQRPPRLPRPRPRPWFVPRP,-0.423
12,RRIRQRPPRLPRPRPRPWGDPRP,-0.138
13,RRIRQRPPRLPRPRPRPWGGPRP,0.102
14,RRIRQRPPRLPRPRPRPWGIPRP,0.0274
15,RRIRQRPPRLPRPRPRPWIIPRP,-0.329
16,RRIRQRPPRLPRPRPRPWINPRP,-0.408
17,RRIRQRPPRLPRPRPRPWKHPRP,-0.0075
18,RRIRQRPPRLPRPRPRPWKNPRP,0.033
19,RRIRQRPPRLPRPRPRPWLCPRP,-0.0571
20,RRIRQRPPRLPRPRPRPWLKPRP,0.0706

row,Sequence,shrunken log2 fold change
1,RRIRQRPPRLPRPRPRPWLLPRP,-0.151
2,RRIRQRPPRLPRPRPRPWMKPRP,0.0212
3,RRIRQRPPRLPRPRPRPWSGPRP,0.082
4,RRIRQRPPRLPRPRPRPWSLPRP,-0.0828
5,RRIRQRPPRLPRPRPRPWTDPRP,0.0166
6,RRIRQRPPRLPRPRPRPWVAPRP,-0.182
7,RRIRQRPPRLPRPRPRPWWAPRP,-0.014
8,RRIRQRPPRLPRPRPRPWYVPRP,-0.0198
9,RRIRQRPPRLPRPRPRPWYYPRP,0.0179
10,RRIRQRPPRLPRPRPRPYCAPRP,-0.624
11,RRIRQRPPRLPRPRPRPYCDPRP,-0.431
12,RRIRQRPPRLPRPRPRPYDCPRP,-0.195
13,RRIRQRPPRLPRPRPRPYDEPRP,-0.00145
14,RRIRQRPPRLPRPRPRPYEPPRP,0.00408
15,RRIRQRPPRLPRPRPRPYFEPRP,-0.524
16,RRIRQRPPRLPRPRPRPYFWPRP,-0.101
17,RRIRQRPPRLPRPRPRPYHGPRP,-0.126
18,RRIRQRPPRLPRPRPRPYHWPRP,-0.0766
19,RRIRQRPPRLPRPRPRPYIEPRP,-0.45
20,RRIRQRPPRLPRPRPRPYISPRP,-0.716
